The values that follow are results of earlier work, collected in patent US7452531B2, “Compositions and methods for tumor-targeted delivery of effector molecules” (Vion Pharmaceuticals, Inc., priority 1999, dated 2008).

This data set has as its system primary tumors. To be noted: 100 mg/kg/day.

Turning to angiostatin, the toxic side effects entry is “without toxic side effects” and the tumor growth entry is recorded as “strong inhibition of tumor growth”.
